Laboratory results: publication PMC4014808

Legend:
L3MBTL2 = test: ELISA; conditions: ELISA: 20 mM Tris-HCl pH 7.5, 150 mM NaCl, 20 mM KCl, 0.02% IGEPAL, 1 mM DTT, 1 h at room temperature, 50 uL of 50 nM biotinylated DNA per well
MPG = test: ELISA; conditions: all C outside primers replaced by 5-formylcytosine (dfCTP in PCR); ELISA: 20 mM Tris-HCl pH 7.5, 150 mM NaCl, 20 mM KCl, 0.02% IGEPAL, 1 mM DTT, 1 h at room temperature; 50 uL of 50 nM biotinylated DNA per well

Substance | Kd (L3MBTL2) [nM] | Kd (L3MBTL2; all C outside primers replaced by 5-formylcytosine (dfCTP in PCR)) [nM] | Kd (MPG) [nM]
Fgf15 promoter probe, C | 81.2 |  | 
Fgf15 promoter probe, 5fC |  | 37.1 | 13.4
